Source: patent US20030082135A1, “Pathway of RANTES-mediated chemokine synthesis in astrocytes and methods of use therefor” (priority 2001, published 2003)

Tested on: Raf-1
Assay: Raf-1 kinase activity in lysates of treated astrocytes (phosphorylation of MEK)
Format: cell-based, mouse
Details: 100 ng/ml RANTES
Method: FIG. 12 is a set of bar graphs and a photograph of a Western blot showing that RANTES activated Raf-1 kinase activity in astrocytes. Panel A. Astrocytes were stimulated with 100 ng/ml RANTES for the indicated times and cell lysates were prepared for analysis of Raf-1 activity. Values are presented as relative Raf-1 kinase activity (percent) and represent the mean±S.E.M. of triplicate experiments. Panel B. Astrocytes were stimulated with 100 ng/ml RANTES for the indicated times and cell lysates were prepared for analysis by Western blotting. Blots were stained with anti phospho-Raf (Ser 259) Ab or control anti-Raf Ab. Panel C. […] Astrocytes were pretreated with the indicated doses of Raf-1 inhibitor for 1 h and then stimulated with 100 ng/ml RANTES for 3 h. Total RNA was prepared and assayed by RPA for expression of message for the indicated proinflammatory mediators and the housekeeping genes L32 and GAPDH. Representative data from one of three similar experiments are presented. […]
It is herein shown that RANTES induced Raf-1 kinase activity in 1 to 5 min; Raf-1 kinase activity peaked after 5-10 min (FIG. 12A). […] Increased Raf-1 enzyme activity was accompanied by dephosphorylation of Ser 259, an inhibitory phosphate site detected by a specific anti-Raf (Ser 259) antibody (FIG. 12B).

Substance: RANTES
- time of peak Raf-1 kinase activity: 5 to 10 min
